Laboratory results from US9956260.

Tests used:
Assay in all cases: cell-based or functional assay
caspase-3 (human) = molecular target: T1, caspase-3 (human) (UniProt P42574)
T1 sequence: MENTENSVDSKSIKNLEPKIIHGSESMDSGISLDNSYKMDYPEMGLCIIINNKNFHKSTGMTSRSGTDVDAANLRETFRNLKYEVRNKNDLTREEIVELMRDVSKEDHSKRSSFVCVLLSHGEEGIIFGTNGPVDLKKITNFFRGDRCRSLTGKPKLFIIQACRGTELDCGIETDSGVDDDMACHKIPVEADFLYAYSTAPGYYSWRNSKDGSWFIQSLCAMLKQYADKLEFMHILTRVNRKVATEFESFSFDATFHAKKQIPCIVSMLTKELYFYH

[1] = molecular target: HIV-1 gp41 of WEAU 16-8 (primary virus) (HIV-1 (primary isolate WEAU 16-8))
[2] = molecular target: HIV-1 gp41 of NL4-3 (WT lab-adapted virus) (HIV-1 (NL4-3))

| Substance | decrease in CD4 T-cell death in HIV-infected HLACs (caspase-3 (human)) [%] | percentage of viable CD4 T cells in HIV-1-infected HLACs after 3 days (flow cytometry; inhibitors 20 µM each) (caspase-3 (human)) [%] | viral infection of HLACs (p24gag FLAQ assay, day 9) [1] [µg/mL] | viral infection of HLACs (p24gag FLAQ assay, day 9) [2] [µg/mL] | viral infection of HLACs (p24gag FLAQ assay, day 9) (µg/ml (printed 'gi/ml')) [2] |
| --- | --- | --- | --- | --- | --- |
| Z-DEVD-FMK (peptide) | 50 | 50 | – | – | – |
| enfuvirtide (T20) (peptide) | – | – | 0.1 | > 2 | 10 |
